Measured values taken from paper PMC9731866, “Structures of a constitutively active mutant of human IDH3 reveal new insights into the mechanisms of allosteric activation and the catalytic reaction” (The Journal of Biological Chemistry, 2022).

Tests used:
[1] = substrate: O=C(O)C[C@H](C(=O)O)[C@@H](O)C(=O)O; experiment: NADH production, Hill fit; type: biochemical, Homo sapiens; details: no activators, 3.2 mM NAD, 2 mM MgCl2, 33 mM Tris-acetate pH 7.4
Description: NADH production, Hill fit on αβ heterodimer of HsIDH3 (mutant form αMβ)

[2] = substrate: O=C(O)C[C@H](C(=O)O)[C@@H](O)C(=O)O; experiment: NADH production, Hill fit; type: biochemical, Homo sapiens; details: no activators, 3.2 mM NAD, 2 mM MgCl2, 33 mM Tris-acetate pH 7.4; remark: listed apart in the source
Description: NADH production, Hill fit on αγ heterodimer of HsIDH3 (mutant form αMγ)

Protein	K0.5 [1] [mM]	Vmax [1] [µmol/min/mg]	K0.5 [2] [mM]	Vmax [2] [µmol/min/mg]
αβ heterodimer of HsIDH3 (mutant form αMβ) (Homo sapiens; P50213:Q166A) (protein, coexpressed alpha and beta-TEV-His6 (pQlinkN), E. coli BL21(DE3) Codon-Plus, His6 tag cleaved with TEV; 1:1 heterodimer, mutant is heterotetramer (αMβ)2 of 131-149 kDa) chain 1: TGGVQTVTLIPGDGIGPEISAAVMKIFDAAKAPIQWEERNVTAIQGPGGKWMIPSEAKESMDKNKMGLKGPLKTPIAAGHPSMNLLLRKTFDLYANVRPCVSIEGYKTPYTDVNIVTIRENTEGEYSGIEHVIVDGVVASIKLITEGASKRIAEFAFEYARNNHRSNVTAVHKANIMRMSDGLFLQKCREVAESCKDIKFNEMYLDTVCLNMVQDPSQFDVLVMPNLYGDILSDLCAGLIGGLGVTPSGNIGANGVAIFESVHGTAPDIAGKDMANPTALLLSAVMMLRHMGLFDHAARIEAACFATIKDGKSLTKDLGGNAKCSDFTEEICRRVKDLD chain 2: not shown	0.17 ± 0.02	18		
αγ heterodimer of HsIDH3 (mutant form αMγ) (Homo sapiens; P50213:Q166A) (protein, coexpressed alpha and gamma-TEV-His6 (pQlinkN), E. coli BL21(DE3) Codon-Plus, His6 tag cleaved with TEV; 1:1 heterodimer, mutant is heterotetramer (αMγ)2 of 131-149 kDa) chain 1: TGGVQTVTLIPGDGIGPEISAAVMKIFDAAKAPIQWEERNVTAIQGPGGKWMIPSEAKESMDKNKMGLKGPLKTPIAAGHPSMNLLLRKTFDLYANVRPCVSIEGYKTPYTDVNIVTIRENTEGEYSGIEHVIVDGVVASIKLITEGASKRIAEFAFEYARNNHRSNVTAVHKANIMRMSDGLFLQKCREVAESCKDIKFNEMYLDTVCLNMVQDPSQFDVLVMPNLYGDILSDLCAGLIGGLGVTPSGNIGANGVAIFESVHGTAPDIAGKDMANPTALLLSAVMMLRHMGLFDHAARIEAACFATIKDGKSLTKDLGGNAKCSDFTEEICRRVKDLD chain 2: FSEQTIPPSAKYGGRHTVTMIPGDGIGPELMLHVKSVFRHACVPVDFEEVHVSSNADEEDIRNAIMAIRRNRVALKGNIETNHNLPPSHKSRNNILRTSLDLYANVIHCKSLPGVVTRHKDIDILIVRENTEGEYSSLEHESVAGVVESLKIITKAKSLRIAEYAFKLAQESGRKKVTAVHKANIMKLGDGLFLQCCREVAARYPQITFENMIVDNTTMQLVSRPQQFDVMVMPNLYGNIVNNVCAGLVGGPGLVAGANYGHVYAVFETATRNTGKSIANKNIANPTATLLASCMMLDHLKLHSYATSIRKAVLASMDNENMHTPDIGGQGTTSEAIQDVIRHIRVINGRAVEA			0.26 ± 0.11	25.5
